From article PMC6283417, “The structure of the RbBP5 β-propeller domain reveals a surface with potential nucleic acid binding sites” come the findings set out here.

For series [1], the target named is T1, RbBP5 beta-propeller (1-340) wild type (mouse, UniProt Q8BX09 1-340). The experiment in a line: fluorescence anisotropy; Anisotropy: 50 mM Tris pH 7.4, 150 mM NaCl, 0.5 mM DTT, 20 C; NMR conditions not in the material. The note with it: protein: recombinant; tags: 6xHis-SUMO removed by 3C protease; label: 6-FAM (3'). For orientation: In fluorescence polarisation assays a small probe gives low polarisation when free and higher when bound to something large.

For series [2], the target named is T1, RbBP5 beta-propeller (1-340) wild type. Nature of the series: NMR 1H-15N HSQC titration; marginally stronger than 7N-RNA pool; Anisotropy: 50 mM Tris pH 7.4, 150 mM NaCl, 0.5 mM DTT, 20 C; NMR conditions not in the material. The note with it: protein: recombinant; tags: 6xHis-SUMO removed by 3C protease.

For orientation: Kd means the equilibrium constant for the complex coming apart.

T1 sequence (Q8BX09 1-340): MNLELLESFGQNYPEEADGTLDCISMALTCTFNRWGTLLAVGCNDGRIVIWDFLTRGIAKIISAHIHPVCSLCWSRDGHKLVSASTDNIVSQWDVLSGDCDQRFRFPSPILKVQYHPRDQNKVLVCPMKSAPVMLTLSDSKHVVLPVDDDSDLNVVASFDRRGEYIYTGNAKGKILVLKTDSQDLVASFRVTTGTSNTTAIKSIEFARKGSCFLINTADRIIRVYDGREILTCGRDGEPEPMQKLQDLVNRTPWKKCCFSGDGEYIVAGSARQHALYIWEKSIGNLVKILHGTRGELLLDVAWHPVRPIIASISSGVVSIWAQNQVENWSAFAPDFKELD

Regarding GCAUAGGUUCGAUC (ssRNA) [14-mer ssRNA-6FAM], the Kd in series [1] was found to be 22.5 ± 3.2 µM.

Regarding UAGGUUC (ssRNA) [SIA optimized RNA 7-mer], the binding result in series [2] is on record as “binds”.
